Starred links: 1 amine or outer side, 2 acyl side, 3 side chain; linkers in the order of their positions; H or OH if unused. Non-standard residues stand in square brackets, D forms with d. Primed or numbered codes have the meaning given here. No end group written: not given here. Asuha″ = L-2-amino-8-(hydroxyamino)-8-oxooctanoic acid, O=C(CCCCC[C@H](N[*:1])C(=O)[*:2])NO
Target: T1, HDAC8 (Homo sapiens, UniProt Q9BY41)
T1 construct: HDAC8 (full length, C-terminal His tag, BPS Bioscience, cat. #: 50008); purchased BPS Bioscience 50008
T1 sequence (Q9BY41 1-377): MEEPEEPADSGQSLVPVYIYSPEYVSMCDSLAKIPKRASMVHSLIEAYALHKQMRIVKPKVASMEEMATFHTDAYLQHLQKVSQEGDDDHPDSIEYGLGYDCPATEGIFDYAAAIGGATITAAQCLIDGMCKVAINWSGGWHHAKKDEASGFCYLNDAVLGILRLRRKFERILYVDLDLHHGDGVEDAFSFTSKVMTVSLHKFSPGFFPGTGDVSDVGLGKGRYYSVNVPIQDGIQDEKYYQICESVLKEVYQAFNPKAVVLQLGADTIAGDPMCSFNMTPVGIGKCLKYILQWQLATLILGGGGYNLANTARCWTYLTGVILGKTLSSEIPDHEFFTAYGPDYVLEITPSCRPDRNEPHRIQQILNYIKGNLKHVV
Test: Recombinant HDAC µSPOT microarray binding assay;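 on Bottom (dose-response curve fit): peptide spots on cellulose slides incubated with rising HDAC enzyme concentrations, imaged together, four-parameter logistic fit, EC50 is enzyme concentration giving half-maximal binding signal, two experiments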;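 on Bottom (dose-response fit): slides with spotted peptides incubated with six HDAC concentrations in HEPES buffer pH 7.4, spot intensities fitted by four-parameter logistic, EC50 as enzyme concentration giving half-maximal binding signal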;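 on Bottom: relative spot intensity from the six enzyme-concentration slides imaged together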;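 on Top: relative spot intensity from the six enzyme-concentration slides imaged together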
Conditions: HDAC8 µSPOT microarray dose-response fit, Bottom Value; X = Asuha; sheet Fig. 3 HDAC8

Substance	Bottom
H2A 40-55 (AERVGAGAPVYLAAVL; UniProt P0C0S8 41-56, looked up, fragment)	0.01
H2B 64-79 (SFVNDIFERIAGEASR; UniProt P62807 65-80, looked up, fragment)	0.02
H2A 79-94 (IPRHLQLAIRNDEELN; UniProt P0C0S8 80-95, looked up, fragment)	0.02
H2A 46-61 (GAPVYLAAVLEYLTAE; UniProt P0C0S8 47-62, looked up, fragment)	0.02
H2A 100-115 (VTIAQGGVLPNIQAVL; UniProt P0C0S8 101-116, looked up, fragment)	0.02

Same assay, conditions: HDAC8 µSPOT microarray dose-response fit, HillSlope Value; X = Asuha; sheet Fig. 3 HDAC8

Substance	HillSlope
H2A 40-55 (AERVGAGAPVYLAAVL; UniProt P0C0S8 41-56, looked up, fragment)	2.67
H2B 64-79 (SFVNDIFERIAGEASR; UniProt P62807 65-80, looked up, fragment)	0.72
H2A 79-94 (IPRHLQLAIRNDEELN; UniProt P0C0S8 80-95, looked up, fragment)	7.17
H2A 46-61 (GAPVYLAAVLEYLTAE; UniProt P0C0S8 47-62, looked up, fragment)	0.58
H2A 100-115 (VTIAQGGVLPNIQAVL; UniProt P0C0S8 101-116, looked up, fragment)	0.63

Same assay, conditions: HDAC8 µSPOT microarray dose-response fit, Top Value; X = Asuha; sheet Fig. 3 HDAC8

Substance	Top
H2A 40-55 (AERVGAGAPVYLAAVL; UniProt P0C0S8 41-56, looked up, fragment)	0.08
H2B 64-79 (SFVNDIFERIAGEASR; UniProt P62807 65-80, looked up, fragment)	1.17
H2A 79-94 (IPRHLQLAIRNDEELN; UniProt P0C0S8 80-95, looked up, fragment)	0.12
H2A 46-61 (GAPVYLAAVLEYLTAE; UniProt P0C0S8 47-62, looked up, fragment)	21.03
H2A 100-115 (VTIAQGGVLPNIQAVL; UniProt P0C0S8 101-116, looked up, fragment)	7.44

Same assay, conditions: Hill slope of the µSPOT microarray dose-response fit; X = Asuha peptides

Substance	HillSlope (Value)
P13 (GLG[Asuha″]GGA)	17.49

Same assay, conditions: fitted bottom of the µSPOT microarray dose-response curve; X = Asuha peptides

Substance	Bottom (Value)
P13 (GLG[Asuha″]GGA)	0.01

Same assay, conditions: fitted top of the µSPOT microarray dose-response curve; X = Asuha peptides

Substance	Top (Value)
P13 (GLG[Asuha″]GGA)	0.03

Target: T2, HDAC2 (Homo sapiens, UniProt Q92769)
T2 construct: HDAC2 (full length, C-terminal His tag, BPS Bioscience, cat. #: 50002); purchased BPS Bioscience 50002
T2 sequence (Q92769 whole entry): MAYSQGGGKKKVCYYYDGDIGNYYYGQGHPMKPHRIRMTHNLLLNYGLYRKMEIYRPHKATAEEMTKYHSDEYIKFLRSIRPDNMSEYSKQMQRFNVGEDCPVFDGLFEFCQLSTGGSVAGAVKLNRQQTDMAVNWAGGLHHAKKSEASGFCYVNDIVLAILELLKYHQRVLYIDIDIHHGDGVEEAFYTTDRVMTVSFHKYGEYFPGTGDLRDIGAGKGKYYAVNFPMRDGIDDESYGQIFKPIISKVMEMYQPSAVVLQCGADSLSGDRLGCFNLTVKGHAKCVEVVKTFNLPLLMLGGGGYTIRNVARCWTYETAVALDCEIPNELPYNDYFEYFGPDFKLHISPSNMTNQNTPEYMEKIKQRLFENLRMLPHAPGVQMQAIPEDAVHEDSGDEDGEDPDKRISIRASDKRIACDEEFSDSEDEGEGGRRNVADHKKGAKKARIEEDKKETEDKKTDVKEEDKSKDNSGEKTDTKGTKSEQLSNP
Test: Recombinant HDAC µSPOT microarray binding assay;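 on Bottom (dose-response curve fit): peptide spots on cellulose slides incubated with rising HDAC enzyme concentrations, imaged together, four-parameter logistic fit, EC50 is enzyme concentration giving half-maximal binding signal, two experiments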;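 on Bottom (dose-response fit): slides with spotted peptides incubated with six HDAC concentrations in HEPES buffer pH 7.4, spot intensities fitted by four-parameter logistic, EC50 as enzyme concentration giving half-maximal binding signal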;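 on Bottom: relative spot intensity from the six enzyme-concentration slides imaged together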;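 on Top: relative spot intensity from the six enzyme-concentration slides imaged together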
Conditions: HDAC2 microarray dose-response curve fit, bottom plateau; X = Asuha; sheet Fig. 3 HDAC2

Substance	Bottom (Value)
H2A 40-55 (AERVGAGAPVYLAAVL; UniProt P0C0S8 41-56, looked up, fragment)	-0.05
H2B 64-79 (SFVNDIFERIAGEASR; UniProt P62807 65-80, looked up, fragment)	0.01
H2A 79-94 (IPRHLQLAIRNDEELN; UniProt P0C0S8 80-95, looked up, fragment)	0.02
H2A 46-61 (GAPVYLAAVLEYLTAE; UniProt P0C0S8 47-62, looked up, fragment)	0.01
H2A 100-115 (VTIAQGGVLPNIQAVL; UniProt P0C0S8 101-116, looked up, fragment)	0.02

Same assay, conditions: HDAC2 microarray dose-response curve fit, top plateau; X = Asuha; sheet Fig. 3 HDAC2

Substance	Top (Value)
H2A 40-55 (AERVGAGAPVYLAAVL; UniProt P0C0S8 41-56, looked up, fragment)	0.06
H2B 64-79 (SFVNDIFERIAGEASR; UniProt P62807 65-80, looked up, fragment)	12.73
H2A 79-94 (IPRHLQLAIRNDEELN; UniProt P0C0S8 80-95, looked up, fragment)	40.23
H2A 46-61 (GAPVYLAAVLEYLTAE; UniProt P0C0S8 47-62, looked up, fragment)	27.24
H2A 100-115 (VTIAQGGVLPNIQAVL; UniProt P0C0S8 101-116, looked up, fragment)	9.23

Same assay, conditions: HDAC2 microarray dose-response curve fit; X = Asuha; sheet Fig. 3 HDAC2

Substance	HillSlope (Value)
H2A 40-55 (AERVGAGAPVYLAAVL; UniProt P0C0S8 41-56, looked up, fragment)	0.08
H2B 64-79 (SFVNDIFERIAGEASR; UniProt P62807 65-80, looked up, fragment)	0.33
H2A 79-94 (IPRHLQLAIRNDEELN; UniProt P0C0S8 80-95, looked up, fragment)	1.01
H2A 46-61 (GAPVYLAAVLEYLTAE; UniProt P0C0S8 47-62, looked up, fragment)	0.62
H2A 100-115 (VTIAQGGVLPNIQAVL; UniProt P0C0S8 101-116, looked up, fragment)	0.88

Same assay, conditions: dose-response fit parameter, µSPOT microarray, H4 K12X (X = Asuha) peptides, HDAC2

Substance	Bottom	HillSlope	Top
P13 (GLG[Asuha″]GGA)	0.01	8.37	0.04

Target: T3, HDAC3/NCoR2 (Homo sapiens, UniProt O15379)
T3 construct: HDAC3/NCoR2 (full length, C-terminal His tag, NCoR2 N-terminal GST tag); purchased BPS Bioscience 50003
T3 sequence (O15379 whole entry): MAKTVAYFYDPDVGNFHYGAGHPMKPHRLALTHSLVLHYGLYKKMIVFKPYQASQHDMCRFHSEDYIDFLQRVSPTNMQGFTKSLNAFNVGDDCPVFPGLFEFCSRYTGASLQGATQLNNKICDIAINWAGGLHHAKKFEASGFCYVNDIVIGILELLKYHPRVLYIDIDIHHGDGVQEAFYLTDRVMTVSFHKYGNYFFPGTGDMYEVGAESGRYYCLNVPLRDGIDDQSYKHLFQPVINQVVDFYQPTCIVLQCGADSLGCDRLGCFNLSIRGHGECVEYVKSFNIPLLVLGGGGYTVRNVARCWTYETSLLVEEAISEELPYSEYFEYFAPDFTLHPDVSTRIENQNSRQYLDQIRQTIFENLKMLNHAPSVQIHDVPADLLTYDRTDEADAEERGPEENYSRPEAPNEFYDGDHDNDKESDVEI
T3 sequence (Q9Y618 389-480 partner limits assumed): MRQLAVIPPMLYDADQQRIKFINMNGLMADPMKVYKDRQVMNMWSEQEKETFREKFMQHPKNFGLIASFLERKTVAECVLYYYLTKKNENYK
Test: Recombinant HDAC µSPOT microarray binding assay;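 on Bottom (dose-response curve fit): peptide spots on cellulose slides incubated with rising HDAC enzyme concentrations, imaged together, four-parameter logistic fit, EC50 is enzyme concentration giving half-maximal binding signal, two experiments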;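 on Bottom (dose-response fit): slides with spotted peptides incubated with six HDAC concentrations in HEPES buffer pH 7.4, spot intensities fitted by four-parameter logistic, EC50 as enzyme concentration giving half-maximal binding signal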;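 on Bottom: relative spot intensity from the six enzyme-concentration slides imaged together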;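 on Top: relative spot intensity from the six enzyme-concentration slides imaged together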
Conditions: HDAC3 µSPOT microarray, Fig. 3; Hill slope of dose-response fit; X = Asuha
Description: Experiments were performed twice, data were obtained with Array Analyze software (Active Motif), and data analysis and representation were performed with the GraphPad Prism 7 software. Outliers were curated manually and data were fitted to nonlinear regression [log(agonist) vs. response—variable slope (four parameters)]. […] Non-sigmoidal curves were denoted as not determined (N.D.) The pEC50 values were determined as the concentration of HDAC enzyme required for half-maximal binding signal.

Substance	HillSlope
H2A 40-55 (AERVGAGAPVYLAAVL; UniProt P0C0S8 41-56, looked up, fragment)	1.44
H2B 64-79 (SFVNDIFERIAGEASR; UniProt P62807 65-80, looked up, fragment)	1.87
H2A 79-94 (IPRHLQLAIRNDEELN; UniProt P0C0S8 80-95, looked up, fragment)	1.48
H2A 46-61 (GAPVYLAAVLEYLTAE; UniProt P0C0S8 47-62, looked up, fragment)	1.43
H2A 100-115 (VTIAQGGVLPNIQAVL; UniProt P0C0S8 101-116, looked up, fragment)	1.35

Same assay, conditions: HDAC3 µSPOT microarray, Fig. 3; fitted bottom plateau of binding signal; X = Asuha

Substance	Bottom (dose-response curve fit)
H2A 40-55 (AERVGAGAPVYLAAVL; UniProt P0C0S8 41-56, looked up, fragment)	0
H2B 64-79 (SFVNDIFERIAGEASR; UniProt P62807 65-80, looked up, fragment)	0.01
H2A 79-94 (IPRHLQLAIRNDEELN; UniProt P0C0S8 80-95, looked up, fragment)	0.01
H2A 46-61 (GAPVYLAAVLEYLTAE; UniProt P0C0S8 47-62, looked up, fragment)	0.01
H2A 100-115 (VTIAQGGVLPNIQAVL; UniProt P0C0S8 101-116, looked up, fragment)	0

Same assay, conditions: HDAC3 µSPOT microarray, Fig. 3; fitted top plateau of binding signal; X = Asuha

Substance	Top (dose-response curve fit)
H2A 40-55 (AERVGAGAPVYLAAVL; UniProt P0C0S8 41-56, looked up, fragment)	0.3
H2B 64-79 (SFVNDIFERIAGEASR; UniProt P62807 65-80, looked up, fragment)	0.22
H2A 79-94 (IPRHLQLAIRNDEELN; UniProt P0C0S8 80-95, looked up, fragment)	0.69
H2A 46-61 (GAPVYLAAVLEYLTAE; UniProt P0C0S8 47-62, looked up, fragment)	0.51
H2A 100-115 (VTIAQGGVLPNIQAVL; UniProt P0C0S8 101-116, looked up, fragment)	0.72

Same assay, conditions: dose-response fit parameter, µSPOT microarray, H4 K12X (X = Asuha) peptides, HDAC3

Substance	Bottom	HillSlope	Top
P13 (GLG[Asuha″]GGA)	-0.01	0.48	24.94

Target: T4, HDAC1 (Homo sapiens, UniProt Q13547)
T4 construct: HDAC1 (full length, C-terminal His tag, C-terminal FLAG tag, BPS Bioscience, cat. #: 50051); FLAG (C); purchased BPS Bioscience 50051
T4 sequence (Q13547 whole entry): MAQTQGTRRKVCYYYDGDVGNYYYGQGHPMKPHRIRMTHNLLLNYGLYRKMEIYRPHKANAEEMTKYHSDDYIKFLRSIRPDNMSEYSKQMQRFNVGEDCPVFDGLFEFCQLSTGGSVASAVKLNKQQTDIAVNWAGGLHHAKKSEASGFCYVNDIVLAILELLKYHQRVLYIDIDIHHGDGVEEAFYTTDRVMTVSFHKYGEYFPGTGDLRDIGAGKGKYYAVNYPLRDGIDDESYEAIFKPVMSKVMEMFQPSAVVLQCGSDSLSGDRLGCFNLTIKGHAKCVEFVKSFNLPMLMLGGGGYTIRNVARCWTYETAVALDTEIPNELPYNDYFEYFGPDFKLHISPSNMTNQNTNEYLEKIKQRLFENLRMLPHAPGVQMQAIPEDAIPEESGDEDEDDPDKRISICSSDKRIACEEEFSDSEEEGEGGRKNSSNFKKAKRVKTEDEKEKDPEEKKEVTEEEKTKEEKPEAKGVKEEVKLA
Test: Recombinant HDAC µSPOT microarray binding assay;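 on Bottom (dose-response curve fit): peptide spots on cellulose slides incubated with rising HDAC enzyme concentrations, imaged together, four-parameter logistic fit, EC50 is enzyme concentration giving half-maximal binding signal, two experiments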;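 on Bottom (dose-response fit): slides with spotted peptides incubated with six HDAC concentrations in HEPES buffer pH 7.4, spot intensities fitted by four-parameter logistic, EC50 as enzyme concentration giving half-maximal binding signal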;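 on Bottom: relative spot intensity from the six enzyme-concentration slides imaged together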;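 on Top: relative spot intensity from the six enzyme-concentration slides imaged together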
Conditions: dose-response fit parameter, µSPOT microarray, H4 K12X (X = Asuha) peptides, HDAC1

Substance	Bottom	HillSlope	Top
P13 (GLG[Asuha″]GGA)	0.02	0.73	0.36

Same assay, conditions: µSPOT microarray, recombinant HDAC1, Fig. 3; X = Asuha; Hill slope of the binding curve

Substance	HillSlope
H2A 40-55 (AERVGAGAPVYLAAVL; UniProt P0C0S8 41-56, looked up, fragment)	0.82
H2B 64-79 (SFVNDIFERIAGEASR; UniProt P62807 65-80, looked up, fragment)	1.09
H2A 79-94 (IPRHLQLAIRNDEELN; UniProt P0C0S8 80-95, looked up, fragment)	1.08
H2A 46-61 (GAPVYLAAVLEYLTAE; UniProt P0C0S8 47-62, looked up, fragment)	1.25
H2A 100-115 (VTIAQGGVLPNIQAVL; UniProt P0C0S8 101-116, looked up, fragment)	1.46

Same assay, conditions: µSPOT microarray, recombinant HDAC1, Fig. 3; X = Asuha; fitted bottom plateau of the binding curve

Substance	Bottom (dose-response fit)
H2A 40-55 (AERVGAGAPVYLAAVL; UniProt P0C0S8 41-56, looked up, fragment)	0.02
H2B 64-79 (SFVNDIFERIAGEASR; UniProt P62807 65-80, looked up, fragment)	0.03
H2A 79-94 (IPRHLQLAIRNDEELN; UniProt P0C0S8 80-95, looked up, fragment)	0.02
H2A 46-61 (GAPVYLAAVLEYLTAE; UniProt P0C0S8 47-62, looked up, fragment)	0.02
H2A 100-115 (VTIAQGGVLPNIQAVL; UniProt P0C0S8 101-116, looked up, fragment)	0.02

Same assay, conditions: µSPOT microarray, recombinant HDAC1, Fig. 3; X = Asuha; fitted top plateau of the binding curve

Substance	Top (dose-response fit)
H2A 40-55 (AERVGAGAPVYLAAVL; UniProt P0C0S8 41-56, looked up, fragment)	5.13
H2B 64-79 (SFVNDIFERIAGEASR; UniProt P62807 65-80, looked up, fragment)	1.21
H2A 79-94 (IPRHLQLAIRNDEELN; UniProt P0C0S8 80-95, looked up, fragment)	19.1
H2A 46-61 (GAPVYLAAVLEYLTAE; UniProt P0C0S8 47-62, looked up, fragment)	0.24
H2A 100-115 (VTIAQGGVLPNIQAVL; UniProt P0C0S8 101-116, looked up, fragment)	0.26
